Test results taken from patent publication US8840891 (RSR, dated 2014).
Blank lines part the entries; values can stand above or below the molecule they belong to.

Experiments:
[1] = target: wild type human TSHR (human) (UniProt P16473); assay: cell-based or functional assay
[2] = target: TSHR with Asp160 mutated to Lysine (human) (UniProt P16473); assay: cell-based or functional assay
[3] = target: TSHR coated onto tubes (TSHR coated tubes) (human) (UniProt P16473); assay: TSHR coated tubes
[4] = target: TSHR coated onto tubes (TSHR coated tubes) (human) (UniProt P16473); assay: TSHR coated tubes, in presence of HBD pool
[5] = target: TSHR coated onto tubes (TSHR coated tubes) (human) (UniProt P16473); assay: TSHR coated tubes, in the presence of HBD pool (Tables 4a, 4b)
[6] = target: TSHR coated onto tubes (TSHR coated tubes) (human) (UniProt P16473); assay: TSHR coated tubes, in the presence of HBD pool (Table 5)
[7] = target: TSHR coated on ELISA plate wells (RSR Ltd) (human) (UniProt P16473); assay: ELISA on TSHR-coated wells, TSH-biotin binding with HBD pool (no competitor)
[8] = target: T1, TSHR coated onto tubes (human, UniProt P16473 21-764, limits assumed); assay: TSHR coated tubes, competitor 125I-M22 IgG
T1 construct: whole entry named; also called TSHR coated tubes; thyrotropin receptor

[9] = target: T1, TSHR coated onto tubes; assay: TSHR coated tubes, competitor 125I-5C9 IgG
[10] = target: human TSHR expressed on CHO cells (human) (UniProt P16473); assay: cell-based or functional assay
[11] = target: wild type human TSHR (human) (UniProt P16473); assay: cell-based or functional assay; remark: listed apart in the source
[12] = target: human TSHR (wild type) expressed in CHO cells (human) (UniProt P16473); assay: cell-based or functional assay
[13] = target: T1, TSHR coated onto tubes; assay: TSHR coated tubes, competitor 125I-TSH

cyclic AMP; M22 3 ng/mL only (fmol/cell well) [1]: 16800 | cyclic AMP; M22 3 ng/mL only (repeat determination) (fmol/cell well) [1]: 16700 | Mutated/wild type (%); M22 only [2]: 85% | cyclic AMP; M22 3 ng/mL only (fmol/cell well) [2]: 14300 | cyclic AMP; M22 3 ng/mL only (repeat determination) (fmol/cell well) [2]: 18900
Molecule: M22 (antibody)

average % binding of labelled tracer [3]: 14% | % binding of labelled tracer [4]: 12% | % of labelled protein bound [5]: 12% | % of labelled protein bound [6]: 15%
Molecule: 125I-labelled TSH (ligand)

Abs 450 nm [7]: 2.14 Abs 450 nm
Molecule: TSH-biotin (ligand)

% inhib of 125I-M22 IgG binding at 0.01 µg/mL [8]: 13% | % inhib of 125I-M22 IgG binding at 0.1 µg/mL [8]: 27% | % inhib of 125I-M22 IgG binding at 1 µg/mL [8]: 48% | % inhib of 125I-M22 IgG binding at 10 µg/mL [8]: 60% | % inhib of 125I-M22 IgG binding at 100 µg/mL [8]: 61% | % inhib of 125I-5C9 IgG binding at 0.01 µg/mL [9]: 13% | % inhib of 125I-5C9 IgG binding at 0.1 µg/mL [9]: 29% | % inhib of 125I-5C9 IgG binding at 1 µg/mL [9]: 48% | % inhib of 125I-5C9 IgG binding at 10 µg/mL [9]: 60% | % inhib of 125I-5C9 IgG binding at 100 µg/mL [9]: 70% | Cyclic AMP, serum T1 + 0.001 µg/mL 9D33 IgG (fmol/cell well) [10]: 21600 | Cyclic AMP, serum T1 + 0.01 µg/mL 9D33 IgG (fmol/cell well) [10]: 19900 | Cyclic AMP, serum T1 + 0.1 µg/mL 9D33 IgG (fmol/cell well) [10]: 17900 | Cyclic AMP, serum T1 + 1 µg/mL 9D33 IgG (fmol/cell well) [10]: 4990 | Cyclic AMP, serum T1 + 10 µg/mL 9D33 IgG (fmol/cell well) [10]: 1460 | Cyclic AMP, serum T3 + 0.001 µg/mL 9D33 IgG (fmol/cell well) [10]: 12200 | Cyclic AMP, serum T3 + 0.01 µg/mL 9D33 IgG (fmol/cell well) [10]: 12200 | Cyclic AMP, serum T3 + 0.1 µg/mL 9D33 IgG (fmol/cell well) [10]: 12000 | Cyclic AMP, serum T3 + 1 µg/mL 9D33 IgG (fmol/cell well) [10]: 7380 | Cyclic AMP, serum T3 + 10 µg/mL 9D33 IgG (fmol/cell well) [10]: 4260 | Cyclic AMP, serum T6 + 0.001 µg/mL 9D33 IgG (single determination) (fmol/cell well) [10]: 10300 | Cyclic AMP, serum T6 + 0.01 µg/mL 9D33 IgG (fmol/cell well) [10]: 10300 | Cyclic AMP, serum T6 + 0.1 µg/mL 9D33 IgG (fmol/cell well) [10]: 8700 | Cyclic AMP, serum T6 + 1 µg/mL 9D33 IgG (fmol/cell well) [10]: 5450 | Cyclic AMP, serum T6 + 10 µg/mL 9D33 IgG (fmol/cell well) [10]: 2260 | Cyclic AMP, serum T19 + 0.001 µg/mL 9D33 IgG (fmol/cell well) [10]: 7090 | Cyclic AMP, serum T19 + 0.01 µg/mL 9D33 IgG (mean of duplicate) (fmol/cell well) [10]: 5760 | Cyclic AMP, serum T19 + 0.1 µg/mL 9D33 IgG (mean of duplicate) (fmol/cell well) [10]: 2390 | Cyclic AMP, serum T19 + 1 µg/mL 9D33 IgG (fmol/cell well) [10]: 404 | Cyclic AMP, serum T19 + 10 µg/mL 9D33 IgG (fmol/cell well) [10]: 448 | Cyclic AMP, serum T20 + 0.001 µg/mL 9D33 IgG (fmol/cell well) [10]: 7510 | Cyclic AMP, serum T20 + 0.01 µg/mL 9D33 IgG (fmol/cell well) [10]: 5390 | Cyclic AMP, serum T20 + 0.1 µg/mL 9D33 IgG (fmol/cell well) [10]: 5360 | Cyclic AMP, serum T20 + 1 µg/mL 9D33 IgG (mean of duplicate) (fmol/cell well) [10]: 980 | Cyclic AMP, serum T20 + 10 µg/mL 9D33 IgG (fmol/cell well) [10]: 204 | cyclic AMP; 100 µg/mL 9D33 IgG only (fmol/cell well) [11]: 534 | cyclic AMP; T21 + 0.001 µg/mL 9D33 IgG (fmol/cell well) [11]: 10200 | cyclic AMP; T21 + 0.01 µg/mL 9D33 IgG (fmol/cell well) [11]: 10800 | cyclic AMP; T21 + 0.1 µg/mL 9D33 IgG (fmol/cell well) [11]: 8720 | cyclic AMP; T21 + 1 µg/mL 9D33 IgG (fmol/cell well) [11]: 1380 | cyclic AMP; T21 + 10 µg/mL 9D33 IgG (fmol/cell well) [11]: 605 | cyclic AMP; T21 + 100 µg/mL 9D33 IgG (fmol/cell well) [11]: 442 | cyclic AMP production; 9D33 IgG 100 µg/mL + M22 Fab 3 ng/mL (fmol/cell well) [12]: 1050 | cyclic AMP production; 9D33 IgG 100 µg/mL + pTSH 3 ng/mL (fmol/cell well) [12]: 2220 | cyclic AMP production; 9D33 IgG 100 µg/mL only (fmol/cell well) [12]: 626 | % inhib of 125I-TSH binding at 0.01 µg/mL [13]: 8% | % inhib of 125I-TSH binding at 0.1 µg/mL [13]: 31% | % inhib of 125I-TSH binding at 1 µg/mL [13]: 55% | % inhib of 125I-TSH binding at 10 µg/mL [13]: 65% | % inhib of 125I-TSH binding at 100 µg/mL [13]: 69%
B1: 9D33 IgG (antibody, V domains shown)
VH: DVQIQQPGTELVKPGASVRLSCKASGYTFTTYWMHWVKQRPGQGLEWIGEIDPSDSYTNYNQKFKGKATLTVDKSSSTAYMHLSSLTSEDSAVYYCSRNYGSGYYFDYWGQGTTLTVSS
VL: GVEMTQSPAIMSASPGEKVTMTCSASSSVSYMHWYQQKSGTSPKRWIYDTSKLASGVPARFSGSGSGTSYSLTISSMETEDAATYYCQQWSSNPWTFGGGTKLEIK
